Article PMC8443799, “Structural characterization of KKT4, an unconventional microtubule-binding kinetochore protein”

B1: BA3098 50-bp CIR147 DNA probe (dsDNA)
DNA 1: CAATATGTAAGGTGTTTTGGTGTAAAACACGCATTCTTGCATAACATGCA
DNA 2: TGCATGTTATGCAAGAATGCGTGTTTTACACCAAAACACCTTACATATTG

Each molecule was assayed against KKT4^2–114 (Trypanosoma brucei) (assay: SEC-MALS; KKT4 2-114 at lower concentrations; 25 mM HEPES pH 7.5, 150 mM NaCl, 0.5 mM TCEP). Details: not given.

| Molecule | stoichiometry N |
| --- | --- |
| KKT4^2–114 (domain or fragment) | 3 |

These molecules were tested against KKT4^2–114 (Trypanosoma brucei) (assay: SEC-MALS; KKT4 2-114 at higher concentrations; 25 mM HEPES pH 7.5, 150 mM NaCl, 0.5 mM TCEP). Details: not given.

| Molecule | stoichiometry N |
| --- | --- |
| KKT4^2–114 (domain or fragment) | 4 |

Each molecule was assayed against Taxol-stabilised microtubules (porcine brain tubulin) (UniProt P02550) (assay: microtubule co-sedimentation assay). Details: parent: est. 0.90; read off a plot.
Chain of Taxol-stabilised microtubules (porcine brain tubulin) (P02550 whole entry, looked up): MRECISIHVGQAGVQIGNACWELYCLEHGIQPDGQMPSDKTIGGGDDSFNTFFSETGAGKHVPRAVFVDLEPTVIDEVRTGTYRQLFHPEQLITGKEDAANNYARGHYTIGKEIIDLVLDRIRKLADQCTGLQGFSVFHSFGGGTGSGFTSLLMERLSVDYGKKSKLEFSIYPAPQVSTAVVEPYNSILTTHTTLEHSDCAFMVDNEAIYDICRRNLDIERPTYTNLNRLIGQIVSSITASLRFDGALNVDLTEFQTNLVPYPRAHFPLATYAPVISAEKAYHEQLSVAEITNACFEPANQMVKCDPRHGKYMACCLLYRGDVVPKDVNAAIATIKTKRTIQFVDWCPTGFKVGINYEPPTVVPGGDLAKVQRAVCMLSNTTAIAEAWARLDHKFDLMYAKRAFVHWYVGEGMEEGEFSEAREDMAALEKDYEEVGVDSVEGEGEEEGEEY

| Molecule | other: fraction bound |
| --- | --- |
| KKT4^115–343 (microtubule-binding domain) R126D | 0.46 |
| KKT4^115–343 (microtubule-binding domain) K206E | 0.85 |
| KKT4^115–343 (microtubule-binding domain) K144E | 0.44 |
| KKT4^115–343 (microtubule-binding domain) R141D | 0.43 |
| KKT4^115–343 (microtubule-binding domain) R123E | 0.23 |
| KKT4^115–343 (microtubule-binding domain) R145D | 0.55 |
| KKT4^115–343 (microtubule-binding domain) K218E | 0.89 |
| KKT4^115–343 (microtubule-binding domain) K115E | 0.67 |
| KKT4^115–343 (microtubule-binding domain) K198E | 0.8 |
| KKT4^115–343 (microtubule-binding domain) R164D | 0.73 |
| KKT4^115–343 (microtubule-binding domain) K136E | 0.43 |
| KKT4^115–343 (microtubule-binding domain) K204E | 0.84 |
| KKT4^115–343 (microtubule-binding domain) K199E | 0.78 |
| KKT4^115–343 (microtubule-binding domain) R140D | 0.48 |
| KKT4^115–343 (microtubule-binding domain) K154E | 0.63 |
| KKT4^115–343 (microtubule-binding domain) K166E | 0.85 |
| KKT4^115–343 (microtubule-binding domain) R130D | 0.6 |
| KKT4^115–343 (microtubule-binding domain) R217D | 0.77 |
| KKT4^115–343 (microtubule-binding domain) K179E | 0.77 |
| KKT4^115–343 (microtubule-binding domain) R167D | 0.74 |
| KKT4^115–343 (microtubule-binding domain) K132E | 0.6 |
| KKT4^115–343 (microtubule-binding domain) R230D | 0.6 |

These molecules were tested against SNAP-6HIS-3FLAG-KKT4 (full-length T. brucei KKT4) (Trypanosoma brucei) (assay: SEC-MALS; full-length SNAP-6HIS-3FLAG-KKT4 at lower concentrations; 25 mM HEPES pH 7.5, 340 mM NaCl, 0.5 mM TCEP). Details: not given.

| Molecule | stoichiometry N |
| --- | --- |
| SNAP-6HIS-3FLAG-KKT4 (full-length T. brucei KKT4) (natural protein) | 2 |

What follows are molecules tested against KKT4^101–352 (Trypanosoma brucei) (assay: SEC-MALS; KKT4 fragments; 25 mM HEPES pH 7.5, 150 mM NaCl, 0.5 mM TCEP). Details: not given.

| Molecule | stoichiometry N |
| --- | --- |
| KKT4^101–352 (domain or fragment) | 2 |

The molecules below were run against T1, KKT4 full-length (KKT4 2-645) (Trypanosoma brucei, UniProt Q580Y8 2-645) (assay: fluorescence anisotropy; 1 nM DNA; 25 mM HEPES pH 7.5, 50 mM NaCl, 0.5 mM TCEP, 1 nM DNA, 30 min at room temperature). Details: protein: recombinant; tags: SNAP-6HIS-3FLAG (pBA925; from Sf9); chain copies: 2; label: 5' 6-FAM; blunt (only one strand printed; 50-bp dsDNA).
T1 sequence: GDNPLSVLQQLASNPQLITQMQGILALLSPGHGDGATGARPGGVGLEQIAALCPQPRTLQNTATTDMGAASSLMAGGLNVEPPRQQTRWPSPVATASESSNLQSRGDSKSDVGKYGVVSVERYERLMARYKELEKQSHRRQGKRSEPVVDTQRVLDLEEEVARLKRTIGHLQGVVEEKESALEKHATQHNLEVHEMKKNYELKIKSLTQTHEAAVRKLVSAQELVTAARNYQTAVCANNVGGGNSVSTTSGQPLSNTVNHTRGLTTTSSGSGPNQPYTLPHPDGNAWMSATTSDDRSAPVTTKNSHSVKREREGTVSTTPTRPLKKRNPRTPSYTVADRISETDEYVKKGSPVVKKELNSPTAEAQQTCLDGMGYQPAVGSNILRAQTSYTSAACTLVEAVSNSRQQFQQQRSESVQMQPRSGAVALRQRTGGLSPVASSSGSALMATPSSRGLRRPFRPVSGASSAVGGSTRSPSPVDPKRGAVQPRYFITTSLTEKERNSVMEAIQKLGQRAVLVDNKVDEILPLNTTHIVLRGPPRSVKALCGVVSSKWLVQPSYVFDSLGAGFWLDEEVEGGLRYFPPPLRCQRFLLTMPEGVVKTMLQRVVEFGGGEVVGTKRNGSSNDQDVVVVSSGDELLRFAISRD

| Molecule | Kd [µM] |
| --- | --- |
| B1 | 0.011 |

These molecules were tested against SNAP-6HIS-3FLAG-KKT4 (full-length T. brucei KKT4) (Trypanosoma brucei) (assay: SEC-MALS; full-length SNAP-6HIS-3FLAG-KKT4 at higher concentrations; 25 mM HEPES pH 7.5, 340 mM NaCl, 0.5 mM TCEP; Superose 6 or Superdex 200 10/300). Details: not given.

| Molecule | stoichiometry N |
| --- | --- |
| SNAP-6HIS-3FLAG-KKT4 (full-length T. brucei KKT4) (natural protein) | 4 |

What follows are molecules tested against Synthetic KKT8 phosphopeptide (BA_peptide_2 (DBS1831-1)) (T. brucei) (assay: fluorescence polarisation; fluorescence anisotropy; KKT4 463-645 (from 170 μM, serially diluted 2:3) with 100 nM 5-FAM peptide probe; 25 mM HEPES pH 7.5, 50 mM NaCl, 0.5 mM TCEP; 30 min at room temperature). Details: not given.

| Molecule | Kd [µM] | fold decrease of binding affinity against wild-type KKT4 BRCT [fold] |
| --- | --- | --- |
| KKT4^463–645 (KKT4 BRCT domain) (domain or fragment) | 30 |  |
| KKT4^463–645 K543A (domain or fragment) |  | 10 |
